Drawing on article PMC3742808 (Nature structural & molecular biology, 2013), this text covers Ki for three molecules.

Numbering of substitutions follows the chain as printed. Bounds are passed on as bounds.

In assay [1] the target is recombinant human APC/C (without CDH1) (human, UniProt Q9H1A4;Q9UJX6;P30260;Q9UJX5;Q9UJX4;Q13042;Q9UJX3;Q9UJX2;Q9UM13;Q9NYG5;Q9BS18;P60 …). The experiment in a line: enzyme inhibition.
Assay [2] concerns the target recombinant human APC/C^CDH1 (Anaphase Promoting Complex/Cyclosome with CDH1) (human, UniProt Q9H1A4;Q9UJX6;P30260;Q9UJX5;Q9UJX4;Q13042;Q9UJX3;Q9UJX2;Q9UM13;Q9NYG5;Q9BS18;P60 …). Kind of assay: enzyme inhibition.

B1: EMI1^ZT (ZBR and Tail; residues 363-447) (domain or fragment)
chain: SEVAKTLKKNESLKACIRCNSPAKYDCYLQRATCKREGCGFDYCTKCLCNYHTTKDCSDGKLLKASCKIGPLPGTKKSKKNLRRL
With B1, in assay [1], the inhibition constant (Ki) – broadly, a dissociation constant, usually derived from enzyme kinetics or from competition with a known ligand – worked out at 2000 ± 400 nM.

B2: EMI1^DLZT (D-box, Linker, ZBR, Tail; C-terminal APC/C inhibitory domain, residues 305-447) (domain or fragment)
chain: NNNKFSPHASTREYVMFRTPLASVQKSAAQTSLKKDAQTKLSNQGDQKGSTYSRHNEFSEVAKTLKKNESLKACIRCNSPAKYDCYLQRATCKREGCGFDYCTKCLCNYHTTKDCSDGKLLKASCKIGPLPGTKKSKKNLRRL
Take B2: the Ki in assay [2] was at most 2.5 nM.

B3: EMI1^D(Mut)LZT (EMI1^DLZT with alanines in place of Arg322 and Leu325 of the D-box RxxL motif) (domain or fragment)
chain: B2 chain with R18A, L21A
In the case of B3, in assay [1], the Ki came out at 220 ± 37 nM.
